Data on 2 molecules can be found in patent publication US20080050375A1 (Eli Lilly, published 2008).

For experiment [1], the target named is T1, TGF-beta 1 mutein (R25K, K26R, V33I, P87T, V89L, K95T) (Homo sapiens (Human), UniProt P01137 279-390, Mature TGF-beta 1 is a disulfide-linked homodimer; one monomer chain is given.).
T1 chain: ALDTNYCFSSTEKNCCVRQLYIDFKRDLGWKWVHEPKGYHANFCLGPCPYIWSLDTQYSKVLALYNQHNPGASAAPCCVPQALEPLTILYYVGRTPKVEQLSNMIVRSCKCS
The experiment in a line: laser desorption/ionization time-of-flight MS on chips (Ciphergen).

Experiment [2] deals with T2, human TGF-beta 3 (RDI, Cat # RDI-1036/CF) (human) (UniProt P10600).
T2 sequence (looked up): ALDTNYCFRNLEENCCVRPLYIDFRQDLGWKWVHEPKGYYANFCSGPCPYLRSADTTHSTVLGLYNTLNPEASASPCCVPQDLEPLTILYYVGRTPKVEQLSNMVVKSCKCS
The experiment in a line: ratio of Biacore Kd for TGF-β3 to Kd for TGF-β1.

Experiment [3] addresses T2, human TGF-beta 3 (RDI, Cat # RDI-1036/CF) (human). The experiment in a line: Biacore SPR, equilibrium fit, mAb captured on Protein A, TGF-β3 injected. On the technique in general: SPR reads the build-up and loss of mass on a sensor chip optically.
The target of experiment [4] is human TGF-beta 1 (R&D Systems, Cat # 240-B/CF) (human) (UniProt P01137). The experiment in a line: Biacore SPR, mAb captured on Protein A, 5 nM ligand injected; stoichiometry from captured signals.
Experiment [5] shares this target. The experiment is described as follows: cell-based or functional assay.
Another experiment addresses T3, latent TGF-beta 1 (UniProt P01137 30-390, limits assumed).
T3 construct: Latent complex (pro-peptide with mature TGF-beta 1); also called Latent TGF-β1; latent form of TGF-beta 1
The experiment in a line: Biacore SPR, mAb captured on Protein A, 5 nM ligand injected; stoichiometry from captured signals. As to the method:
BIAcore methods are used to determine the ability of invention mAb compositions to bind other entities, specifically the latent form of TGF-beta 1 or TGF-beta 3. All measurements are performed at room temperature. Samples are dissolved in HBS-EP buffer (150 mM sodium chloride, 3 mM EDTA, 0.01% (w/v) surfactant P-20, and 10 mM HEPES, pH7.4). Recombinant Protein A is immobilized on all four flow cells of a CM4 sensor chip at a level of 400-450 response units (RUs) using an amine coupling kit.
Binding is evaluated using multiple analytical cycles. Each cycle is performed at a flow rate of 100 μL/minute consisting of the following steps: injection of 15 μL of an antibody binding composition at 1 μg/mL, injection of 250 μL of either 5 nM TGF-beta 1, 5 nM latent TGF-beta 1, or 5 nM TGF-beta 3 followed by a short delay (5 min) for dissociation, and regeneration using two injections of 50 μL of 10 mM glycine hydrochloride, pH1.5. The amount of signal after capturing first the Mab, and then the ligand, are determined using the instrument control software. Since the signal is proportional to the mass of protein captured, the stoichiometry of the captured ligand is readily calculable (Table 4).

The target of experiment [6] is human TGF-beta 1 (R&D Systems, Cat # 240-B/CF) (human) (UniProt P01137). The experiment is described as follows: Biacore SPR, mAb captured on Protein A, TGF-beta 1 injected.
The target is the same in experiment [7]. The experiment is described as follows: Biacore SPR, calculated koff/kon.

T3 sequence (P01137 30-390 limits assumed): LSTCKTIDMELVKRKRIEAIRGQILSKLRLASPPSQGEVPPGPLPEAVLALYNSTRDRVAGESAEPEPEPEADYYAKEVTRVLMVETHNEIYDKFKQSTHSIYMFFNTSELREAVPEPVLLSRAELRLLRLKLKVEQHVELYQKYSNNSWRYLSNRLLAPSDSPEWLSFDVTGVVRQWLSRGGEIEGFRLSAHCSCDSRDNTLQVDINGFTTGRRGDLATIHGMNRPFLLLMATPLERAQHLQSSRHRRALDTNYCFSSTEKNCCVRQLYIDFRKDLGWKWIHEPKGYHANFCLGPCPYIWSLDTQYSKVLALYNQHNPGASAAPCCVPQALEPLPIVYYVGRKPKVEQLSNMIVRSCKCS

B1: mAb 1D11 (R&D Systems) (antibody, V domains shown)
VH: QVQLQQSGPELVRPGASVKLSCKASGYIFITYWMNWVKQRPGQGLEWIGQIFPASGSTNYNEMFEGKATLTVDTSSSTAYMQLSSLTSEDSAVYYCARGDGNYALDAMDYWGQGTSVTVSS
VL: DIVLTQSPASLAVSLGQRATISCRASESVDSYGNSFMHWYQQKSGQPPKLLIYLASNLESGVPARFSGSGSRTDFTLTIDPVEADDAATYYCQQNNEDPLTFGAGTKLEIK
For the molecule B1, in experiment [1], the “fold less binding of the TGF-beta 1 mutein relative to wild type TGF-beta 1” value is 2.5 fold.

B2: mAb C27 (antibody, IgG4, V domains shown)
VH: QVQLVQSGAEVKKPGASVKVSCKASGYTFTDYNIHWVRQAPGQGLEWMGYIYPYDGETGYNQKFKSRVTMTTDTSTSTAYMELRSLRSDDTAVYYCARGYRAFEYWGQGTLVTVSS
VL: DIQMTQSPSSLSASVGDRVTITCRASSSVPYMHWYQQKPEKAPKSLIYATSNLAFGVPSRFSGSGSGTDFTLTISSLQPEDFATYYCQQWDLNPPAFGQGTKLEIK
Usually Kd stands for the equilibrium constant for the complex coming apart. By koff is commonly meant the first-order rate constant of dissociation. High values mean a short-lived complex, low ones a long-lived complex. As a reminder, the kon is the rate constant with which the complex forms. Lower therefore signals slow association. Turning to B2, the Specificity (Kd, β3/Kd, β1) in experiment [2] came out at 3670 fold. For the same molecule, the Kd is 2.2 nM in experiment [3] and 0.0006 nM in experiment [7]. For the same molecule, the Stoichiometry of ligand binding in experiment [4] was found to be 1.74; with latent TGF-beta 1 it was 0.08. Moreover, the Fold Improvement in IC50 relative to mAb2471 (HT-2 cell proliferation assay) in experiment [5] was 401 fold. This molecule showed a koff in experiment [6] of 8e-06 s⁻¹. In experiment [6], this molecule displayed a kon of 1.3e+07 M⁻¹ s⁻¹.
